Patent publication US20200317768A1 (published 2020)

Molecular target: T1, cynomolgus monkey FcγRIIb extracellular domain, C-terminal His-tag (cynomolgus monkey)
T1 construct: also called cyno FcγRIIb; cynoFcγRIIb; not shown: His-tag added to C-terminus
T1 chain: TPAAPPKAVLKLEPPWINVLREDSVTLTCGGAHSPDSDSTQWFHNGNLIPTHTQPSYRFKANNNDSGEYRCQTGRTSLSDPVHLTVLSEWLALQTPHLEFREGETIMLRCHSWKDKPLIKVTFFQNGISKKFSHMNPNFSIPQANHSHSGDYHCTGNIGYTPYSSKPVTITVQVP
Experiment: SPR (BIACORE); KD of parent SG1 / KD of variant

KD fold (SG1 = 1): 1 fold
B1: MS_M103205H795-SG1/M103202L889-SK1 (antibody, human IgG1, kappa)
heavy: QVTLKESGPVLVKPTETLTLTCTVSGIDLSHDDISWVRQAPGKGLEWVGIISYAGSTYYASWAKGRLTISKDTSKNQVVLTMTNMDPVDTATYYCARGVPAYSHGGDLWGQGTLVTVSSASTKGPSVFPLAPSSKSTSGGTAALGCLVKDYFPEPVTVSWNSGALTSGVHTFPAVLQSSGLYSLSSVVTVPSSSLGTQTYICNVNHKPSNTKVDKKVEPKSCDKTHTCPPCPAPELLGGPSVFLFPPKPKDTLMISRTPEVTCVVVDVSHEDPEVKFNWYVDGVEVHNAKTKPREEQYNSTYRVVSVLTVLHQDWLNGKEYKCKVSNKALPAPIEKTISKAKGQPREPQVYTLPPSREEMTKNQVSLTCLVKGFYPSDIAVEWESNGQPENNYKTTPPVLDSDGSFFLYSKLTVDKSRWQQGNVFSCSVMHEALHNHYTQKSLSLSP
light: DIVMTQSPATLSLSPGERATLSCTSSQSVYHANWLSWFQQKPGQPPKLLIYWASTLAYGVPSRFSGSGSGTDFTLTISSLQPEDAATYYCAGGYGGGRYAFGQGTKVEIKRTVAAPSVFIFPPSDEQLKSGTASVVCLLNNFYPREAKVQWKVDNALQSGNSQESVTEQDSKDSTYSLSSTLTLSKADYEKHKVYACEVTHQGLSSPVTKSFNRGEC
notes: Parent antibody with SG1 human heavy chain constant region; also called MS1032LO06-SG1
